Results published in PMC12946505, “RrMYB2 Regulates Drought Stress via RrJMJ12‐Dependent Epigenetic Modification in Rosa rugosa”.

Target: RrJMJ12-C (Rosa rugosa, UniProt A0A2P6P5A5 1371-1493)
Test: EMSA; unlabeled cold probe control; EMSA/Gel-Shift Kit (Beyotime) binding buffer, 30 min at 24 C; salt and pH not stated
Conditions: protein: recombinant; tags: GST (pGEX4T-1); label: biotin; blunt

RrJMJ12-C, sequence (A0A2P6P5A5 entry or part of it): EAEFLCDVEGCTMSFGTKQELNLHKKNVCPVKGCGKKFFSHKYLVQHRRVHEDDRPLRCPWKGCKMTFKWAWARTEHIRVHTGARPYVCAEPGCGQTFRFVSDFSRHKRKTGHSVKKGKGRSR

B1: Probe2 (dsDNA)
DNA 1: TTTCTCATGAACCCTCTGCTTTCTCATCTTGGGT
DNA 2: ACCCAAGATGAGAAAGCAGAGGGTTCATGAGAAA
binding result: binds

B2: Probe5 (dsDNA)
DNA 1: TAATTAGGTATCTCTGCTCGAGTTCTTTTG
DNA 2: CAAAAGAACTCGAGCAGAGATACCTAATTA
binding result: binds

B3: Probe3 (dsDNA)
DNA 1: GTCTTATTTTTCTCTGTTTTCTTTTTTGGTATT
DNA 2: AATACCAAAAAAGAAAACAGAGAAAAATAAGAC
binding result: binds

B4: Probe1 (dsDNA)
DNA 1: CTCTCTCTCTCTCTCTCTCTGTTTGCGCCAAAACA
DNA 2: TGTTTTGGCGCAAACAGAGAGAGAGAGAGAGAGAG
binding result: binds

B5: Probe4 (dsDNA)
DNA 1: ATGACCCCCTTTTGCTCTGCTCTGTCTTTCTAGT
DNA 2: ACTAGAAAGACAGAGCAGAGCAAAAGGGGGTCAT
binding result: binds
